These results are taken from patent US20130165328, “APPARATUS AND METHODS FOR KINETIC ANALYSIS AND DETERMINATION OF NUCLEIC ACID SEQUENCES” (ILLUMINA, INC., published 2013).

The target in one data set is BSU DNA polymerase I (Bacillus subtilis, UniProt O34996 O34996:1-880, second Ser after 6xHis tag replaced by Cys (in tag)). Put plainly: stopped-flow fluorescein quenching; correct dCTP signal rises and mismatch dATP signal falls with NaCl 62.5-375 mM; 10 mM MgSO4. Conditions: label: fluorescein-dT in primer, 5 bases from incorporation site; primer/template with 5' template overhang. The text has this:
Theoretically, it was possible to use an enzyme simulation that predicts the feasibility of correct vs. mismatch base discrimination using enzyme-DNA binding kinetics. […] Rapid mixing is generally achieved using a fast delivery and mixing system to minimize the contribution of the diffusion constants to the overall access of the polymerase to the DNA templates. To determine the validity of the theoretical predictions for base discrimination based on DNA binding kinetics, correct (dCTP) and mismatch (dATP) nucleotides were rapidly mixed with BSU polymerase and FAM labeled 19/36 mer in the presence of various NaCl concentrations with a stopped flow instrument. Pre-steady state correct and mismatch nucleotide kinetic responses of polymerase/DNA binding were made by monitoring the extent of induced fluorescence quenching response. Correct and mismatch nucleotide responses were determined from the stopped flow kinetic raw traces (FIG. 23). The traces were normalized and the maximum fluorescence change was determined and subsequently, correlated with the extent of synchronized enzyme-DNA binding. As [NaCl] was increased and the nucleotide concentration was held constant, the fluorescence change for the correct nucleotide (leftmost bar in each pair of bars in FIG. 24B) was increased, while the response for the mismatch (rightmost bar in each pair of bars in FIG. 24B) was decreased. […]

For another data set, the target named is KlenTaq polymerase (UniProt P19821 P19821:280-832). Nature of the data set: stopped-flow observed k1; 600 nM enzyme, 100 uM dGTP, 50 mM NaCl, 2 mM MgCl2, pH 7.5. Conditions: label: 6-FAM on internal T; hairpin. As for the experimental part:
The pre-steady kinetic analysis of Klenow or KlenTaq polymerase for incorporating the cognate nucleotide (dGTP) was monitored following the mixing of 6-carboxyfluorescein (6-FAM) dye label hairpin-DNA template with the enzyme (600 nM) and nucleotide (100 μM) in a reaction buffer containing 50 mM Tris-HCl, pH 7.5, 300 mM NaCl (or 50 mM NaCl in the KlenTaq reaction), 0.5 mM Dithiothreitol and 5 mM MgCl₂ (or 2 mM MgCl₂ in the KlentTaq reaction) in an Applied Photophysics SX20 stopped-flow spectrometer. The 6-FAM hairpin-DNA template was: 5′-[…].[…](6-FAM) CGAG-3′ (SEQ ID NO: 5).

Chain of KlenTaq polymerase (P19821 280-832, one chain of several): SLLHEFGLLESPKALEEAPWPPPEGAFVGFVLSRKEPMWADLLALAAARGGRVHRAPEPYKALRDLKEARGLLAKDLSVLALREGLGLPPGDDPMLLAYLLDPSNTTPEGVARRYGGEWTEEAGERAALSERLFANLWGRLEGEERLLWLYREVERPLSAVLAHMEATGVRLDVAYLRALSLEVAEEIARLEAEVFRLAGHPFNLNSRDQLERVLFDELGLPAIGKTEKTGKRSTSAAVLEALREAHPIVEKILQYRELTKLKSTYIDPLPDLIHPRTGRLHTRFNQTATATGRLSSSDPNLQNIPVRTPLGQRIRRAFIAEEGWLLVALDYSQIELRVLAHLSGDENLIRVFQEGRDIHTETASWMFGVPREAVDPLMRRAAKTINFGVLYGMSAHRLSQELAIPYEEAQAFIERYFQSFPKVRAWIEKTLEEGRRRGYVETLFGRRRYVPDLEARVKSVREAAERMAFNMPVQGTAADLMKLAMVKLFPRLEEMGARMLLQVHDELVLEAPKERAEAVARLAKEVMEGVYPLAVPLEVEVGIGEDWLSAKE

B1: 19/36 mer primer/template duplex (FAM-labelled) (dsDNA)
DNA 1: GCTTGCACAGGGCCTCGAC
DNA 2: CGTTAGTAAGGTCGAGGCCCTGTGCAAGC
Regarding B1, in the data set with BSU DNA polymerase I, the binding result is listed as “binds”.

With CGTTAGTAACCTCGAGGCAACTTAGCCTCGAG (structured_DNA) [6-FAM hairpin-DNA template], the binding result with KlenTaq polymerase was “binds”.
